Article PMC6327041 (2019)
Where no end group is shown, it is not given here. [ ]: non-standard residue; d: D form. pT = C[C@@H](OP(=O)(O)O)[C@H](N)C(=O)O

B6: GST-PHD1 (S287-K347) of KDM5A (domain or fragment)
chain: SVNFVDLYVCMFCGRGNNEDKLLLCDGCDDSYHTFCLIPPLPDVPKGDWRCPKCVAEECSK

What was measured:
[1] = target: B6; assay: FP
[2] = target: B6; assay: FP; H3R2me2a (asymmetric dimethyl)
[3] = target: B6; assay: FP; H3R2me2s (symmetric dimethyl)
[4] = target: B6; assay: FP; H3R8me2a (asymmetric dimethyl)
[5] = target: B6; assay: FP; H3R8me2s (symmetric dimethyl)
[6] = target: H3 10mer peptide mutated at R2 (UniProt P68431 2-11); assay: FP; H3R2A
[7] = target: B6; assay: FP; H3T6ph

B1: unmodified H3 10mer effector peptide (H3 Ala1-Ser10) (peptide)
peptide: ARTKQTARKS
B1 showed a Kd [1] of 0.996 µM.

B2: H3 10mer peptide methylated at R2 (peptide)
peptide: ARTKQTARKS
modifications: also: methylated Arg2, degree of methylation not given here
Binder B2 has a Kd [2] of 5.41 µM and a Kd [3] of 5.31 µM.

B3: H3K9ac 10mer peptide (peptide)
peptide: ARTKQTARKS
modifications: acetyl-lysine at 9 (K9ac)
With B3 the Kd [1] was 1.01 µM.

B4: H3K9me3 10mer peptide (peptide)
peptide: ARTKQTARKS
modifications: trimethyl-lysine at 9 (K9me3)
Binder B4 has a Kd [1] of 0.74 µM.

B5: H3 10mer peptide methylated at R8 (peptide)
peptide: ARTKQTARKS
modifications: also: methylated Arg8, degree of methylation not given here
B5 showed a Kd [4] of 1.84 µM and a Kd [5] of 2.01 µM.

B6 gave a Kd [6] of 205 µM.

B7: H3 10mer peptide phosphorylated at T6 (peptide)
peptide: ARTKQ[pT]ARKS
B7 gave a Kd [7] of 72 µM.
